From article PMC3940202, “Structure of Bacillus subtilis γ-glutamyltranspeptidase in complex with acivicin: diversity of the binding mode of a classical and electrophilic active-site-directed glutamate analogue” (Acta Crystallographica Section D: Biological Crystallography, 2014)

Molecular target: T1, Bacillus subtilis γ-glutamyltranspeptidase large (L) subunit (Bacillus subtilis, UniProt P54422 36-402)
T1 construct: γ-glutamyltranspeptidase (GGT; EC 2.3.2.2) of Bacillus subtilis, large subunit, residues 36-402, formed from the precursor by autocatalytic cleavage before Thr403; The range 36-402 is what it gives for the L subunit of the protein; The His-tag segment and residues 396-402 are disordered in the crystal; also called GGT L subunit; His6-GGT (large subunit); source: E. coli C41(DE3), plasmid pCold …
T1 sequence (looked up): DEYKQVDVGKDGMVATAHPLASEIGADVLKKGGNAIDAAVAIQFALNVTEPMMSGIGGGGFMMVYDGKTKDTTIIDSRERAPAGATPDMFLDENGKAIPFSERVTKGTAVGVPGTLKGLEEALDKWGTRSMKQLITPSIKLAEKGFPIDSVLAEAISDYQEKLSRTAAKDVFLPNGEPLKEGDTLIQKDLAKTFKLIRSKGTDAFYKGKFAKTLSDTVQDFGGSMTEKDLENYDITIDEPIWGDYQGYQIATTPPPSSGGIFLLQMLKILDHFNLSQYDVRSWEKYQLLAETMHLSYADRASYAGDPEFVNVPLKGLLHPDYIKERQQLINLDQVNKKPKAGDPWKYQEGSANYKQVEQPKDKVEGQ
Test: crystal structure; micro-oil batch method at 293 K; 10 mg/ml protein in 50 mM HEPES pH 7.0 mixed with 26%(w/v) PEG 3350, 0.7 M sodium thiocyanate, 6%(v/v) ethylene glycol; crystals soaked 2 h in 5 mM acivicin; refined at 1.8 Å; one heterodimer in the asymmetric unit
Details: both partners purified

binding result: binds
B1: Bacillus subtilis γ-glutamyltranspeptidase small (S) subunit (enzyme, UniProt P54422 403-587, looked up)
chain: TTHFTVADRWGNVVSYTTTIEQLFGTGIMVPDYGVILNNELTDFDAIPGGANEVQPNKRPLSSMTPTILFKDDKPVLTVGSPGGATIISSVLQTILYHIEYGMELKAAVEEPRIYTNSMSSYRYEDGVPKDVLSKLNGMGHKFGTSPVDIGNVQSISIDHENGTFKGVADSSRNGAAIGINLKRK
modifications: acivicin covalently bound through its C3 atom to Thr403 Oγ (crystal soaked for 120 min, PDB 3whs; not in the crystal without soaking, PDB 3whq)
notes: γ-glutamyltranspeptidase (GGT); Made as one His6-tagged precursor with the L subunit and processed autocatalytically; also called GGT S subunit
